One series addresses T1, YlSDR (Yarrowia lipolytica, UniProt Q6CEE9).
T1 construct: gene YALI0B16192g; full length, N-terminal His-tag (vector pK470), E. coli BL21 (DE3) Gold, purified
T1 sequence (Q6CEE9 1-278): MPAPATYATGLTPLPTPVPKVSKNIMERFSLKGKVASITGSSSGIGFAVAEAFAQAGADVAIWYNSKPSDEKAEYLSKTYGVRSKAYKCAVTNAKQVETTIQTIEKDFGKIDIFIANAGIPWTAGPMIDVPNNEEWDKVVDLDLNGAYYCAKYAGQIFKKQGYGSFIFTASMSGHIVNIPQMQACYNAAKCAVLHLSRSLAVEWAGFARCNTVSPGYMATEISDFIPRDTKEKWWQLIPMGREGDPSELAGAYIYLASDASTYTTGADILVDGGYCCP
Briefly: chiral GC of product after acetylation. Format: biochemical. The note with it: reduction to (R)-2-octanol; NADPH 11 mM; citrate 50 mM, pH 5.0, 28 °C; Tween 20.

Substrate in series [1]: CCCCCC[C@H](C)O
In words: purified protein. The note with it: oxidation, NAD+ co-substrate, potassium phosphate 50 mM, 40 mM KCl, pH 8.5, 28 °C, Tween 20. Format: biochemical, Yarrowia lipolytica.

Substrate in series [2]: NC(=O)c1ccc[n+]([C@@H]2O[C@H](COP(=O)(O)OP(=O)(O)OC[C@H]3O[C@@H](n4cnc5c(N)ncnc54)[C@H](O)[C@@H]3O)[C@@H](O)[C@H]2O)c1
Briefly: purified protein. The following applies: oxidation of 10 mM (S)-2-octanol, potassium phosphate 50 mM, 40 mM KCl, pH 8.5, 28 °C, varied: cofactor. Format: biochemical, Yarrowia lipolytica.

Substrate in series [3]: CCCCCCC(C)=O
Briefly: purified protein. Format: biochemical, Yarrowia lipolytica. The note with it: reduction, NADH co-substrate, potassium phosphate 50 mM, 40 mM KCl, pH 7.0, 28 °C, Tween 20.

As a reminder, the Km is the substrate concentration at which the rate is half of its maximum. As a reminder, the kcat is the number of substrate molecules converted per active site and unit of time at saturation. Usually kcat/Km stands for the turnover number divided by the Michaelis constant.

`CCCCCCC(C)=O` [2-octanone]: the “chiral GC of product after acetylation” value at YlSDR is “(R)-2-octanol was prepared under the following conditions: purified YlSDR in citrate buffer”.

B1: YlADH2 (Yarrowia lipolytica CLIB122) (protein)
chain: MSAPVIPKTQKGVIFETSGGPLMYKDIPVPVPADDEILVNVKFSGVCHTDLHAWKGDWPLDTKLPLVGGHEGAGVVVAKGKNVDTFEIGDYAGIKWINKACYTCEFCQVAAEPNCPNATMSGYTHDGSFQQYATANAVQAAHIPKNCDLAEIAPILCAGITVYKALKTAAILAGQWVAVTGAGGGLGTLAVQYAKAMGYRVLAIDTGADKEKMCKDLGAEVFIDFAKTKDLVKDVQEATKGGPHAVINVSVSEFAVNQSIEYVRTLGTVVLVGLPAGAVCKSPIFQQVARSIQIKGSYVGNRADSQEAIEFFSRGLVKSPIIIIGLSELEKVYKLMEEGKIAGRYVLDTSK
As to B1, the Km in “purified protein [1]” worked out at 1.42 ± 0.03 mM; in “purified protein [2]” it was 17.8 ± 1.26 mM; in the series “purified protein [3]”, 5.38 ± 0.76 mM. In addition, the results for the kcat in the series “purified protein [1]”, in “purified protein [2]” and in “purified protein [3]” were 1.05 ± 0.52 s⁻¹, 3.43 ± 0.05 s⁻¹ and 0.56 ± 0.04 s⁻¹, respectively. Moreover, the kcat/Km in the series “purified protein [1]” is 740 ± 500 M⁻¹ s⁻¹; in “purified protein [2]”, 190 ± 70 M⁻¹ s⁻¹; in “purified protein [3]”, 100 ± 160 M⁻¹ s⁻¹.
